Data from patent US20180207202A1, “METHODS FOR MOBILIZING HEMATOPOIETIC STEM CELLS” (Ohio State Innovation Foundation, priority 2013, published 2018).
Like-named read-outs stand apart in the source and are kept apart here.

How the values were obtained:
[1] = system: HSCs (Lin-Sca-1+c-Kit+, LSK cells); assay: LSK cell mobilization into peripheral blood, flow cytometry (Example 6); format: in vivo, C57BL/6 mice
Protocol: (§1) C57BL/6 mice were injected intraperitoneally (i.p.) either (i) with recombinant human FLT3L (Celldex Therapeutics or Miltenyi Biotec) ([…]) for 10 consecutive days or (ii) with G-CSF (Amgen) ([…]) for 5 consecutive days. The capacity of human FLT3L to bind murine FLT3L receptors and Plerixafor to block murine Cxcr4 receptor was previously reported. (See, e.g., Lyman et al., 1994; Brawel et al., 1996; Gerlach et al., 2001; Broxmeyer et al., 2005). Twelve hours after the last dose of either FLT3L or G-CSF, the mice were injected i.p. with either PBS or Plerixafor (AMD3100, Sigma) (5 mg/kg). The mice were euthanized one hour later.
As described by Ferraro et al., 2011, peripheral blood was collected retro-orbitally while the mice were under deep anesthesia. Briefly, the mice were […] by an i.p. injection with 100 μL of a mixture of ketamine (54.3 mg/mL) and xylazine (9.1 mg/mL). Blood was collected from the retro-orbital venous plexus through a microcapillary heparinized tube. The mice were then euthanized while still deeply anesthetized. RBCs were depleted by RBC lysis buffer. The remaining cells were subjected to flow cytometric analysis or transplantation.
The mAbs reactive with murine cell antigens were purchased from BD Biosciences or eBioscience. Cell preparation and analysis were performed as described by Yu et al., 2010. […]

[2] = system: CD8+ T cells; assay: CD8+ T cells in mobilized peripheral blood, flow cytometry (Example 3); format: in vivo, mice (WT B6D2F1/J); conditions: group of three mice
Protocol: It is known that donor CD8^+ T cells are mainly responsible for GVHD in HSCT, and G-CSF is considered a toxic mobilizer as it also induces GVHD.
In FIG. 3, WT B6D2F1/J mice were treated with FLT3L or G-CSF for 10 or 5 days, respectively, followed by a one-hour Plerixafor treatment. PBS served as a control. Peripheral blood cells were assayed by flow cytometry to examine percentages of CD8^+ T cells ([…]) in total white blood cells. Data were summarized from a group of three mice.

[3] = system: peripheral blood stem cells; conditions: cited from earlier work
[4] = system: mice syngeneically infused; conditions: cited from earlier work
[5] = system: NK cells (NK1.1+CD3-); assay: NK cell expansion in peripheral blood and spleen, flow cytometry (Example 2); format: in vivo, mice (WT C57BL/6 or B6D2F1/J)
Description: […] PBS; gated on total white blood cells).
In FIG. […] PBS served as a control. Peripheral blood cells were counted using trypan blue and assayed by flow cytometry to examine percentages of NK cells (NK1.1^+CD3^−).

[6] = system: lethally irradiated BALB/c mice; assay: Allogeneic transplantation of mobilized grafts into lethally irradiated mice (Example 6); format: in vivo, BALB/c mice (grafts from C57BL/6); conditions: 8×10^5 mobilized cells per recipient
Protocol: For allogeneic transplantation, each recipient BALB/c mouse was subjected to a lethal irradiation (delivered in 2 fractions separated by 4 hours using RS 2000 X-Ray Q2 Irradiator) and was then injected with 8×10^5 mobilized RBC depleted peripheral blood cells isolated from C57BL/6 mice. […] Considering the likely graft rejection and GVHD complication in the allogeneic model, a 4-fold higher number of cells (i.e., 8×10^5 donor cells isolated from C57BL/6 mice) were administered intravenously (i.v.) into each BALB/c recipient for allogeneic transplants. The lethally irradiated mice were housed in a sterile environment and baytril antibiotic was provided in the drinking water to prevent infection-caused mortality. After transplantation, mice were monitored daily and the phenotypes of the mice were recorded.
(§2) Irradiated mice without any cell infusion (IR Ctl) served as a control group. A total of 2×10^5 (A) or 8×10^5 (B) peripheral blood cells were transplanted for each recipient. Each group contains 5 to 8 mice. A log-rank test was used to compare survival curves.
In FIG. 16, lethally irradiated BALB/c mice were transplanted with grafts from C57BL/6 mice that were mobilized by the indicated regimens. At four months post-transplantation, the surviving mice were sacrificed.

[7] = system: lethally irradiated C57BL/6 mice; assay: Syngeneic transplantation of mobilized grafts into lethally irradiated mice (Example 6); format: in vivo; conditions: 2×10^5 mobilized cells per recipient
Protocol: For syngeneic transplantation, C57BL/6 mice were subjected to 9 Gy of irradiation delivered in 2 fractions separated by 4 hours using RS 2000 X-Ray Q2 Irradiator (Rad Source Technologies, Suwanee GP). Four hours later, each mouse was transplanted via the tail vein with 2×10^5 mobilized RBC-depleted peripheral blood cells from C57BL/6 mice. […] The lethally irradiated mice were housed in a sterile environment and baytril antibiotic was provided in the drinking water to prevent infection-caused mortality. After transplantation, mice were monitored daily and the phenotypes of the mice were recorded.
as §2

[8] = system: fully mismatched acute GVHD model; assay: Survival in fully mismatched acute GVHD model given mobilized peripheral blood cells (Example 5); format: in vivo, mice (C57BL/6 to BALB/c); conditions: 0.8 million mobilized cells per mouse
[9] = system: NK cells, Tregs, DCs, monocytes, neutrophils; assay: Immune cell subsets in mobilized peripheral blood, flow cytometry (Example 6); format: in vivo, C57BL/6 mice
Protocol: as §1
The mAbs reactive with murine cell antigens were purchased from BD Biosciences or eBioscience. Cell preparation and analysis were performed as described by Yu et al., 2010. The immune subsets were gated as CD3^−NK1.1^+ for natural killer (NK) cells, CD3^+CD25^+Foxp3^+ for regulatory T cells (Tregs), B220^−CD11c^+CD11b^− for conventional dendritic cells (cDCs), and CD11b^−CD11c^lowPDCA1^+SiglecH^+ for plasmacytoid DCs (pDCs).
In FIG. 12, the constitution of immune cell subsets in mobilized peripheral blood was determined by flow cytometric analysis with corresponding antibodies (B cell: CD3^−CD19^+, T cell: CD3^+NK1.1^−; NK cell: CD3^−NK1.1^+; Neutrophil: Gr1^highCD11b^+; Monocyte: Gr1^medCD11b^+; DC: CD11c^+). […]

[10] = system: lethally irradiated syngeneic mouse model; assay: Survival of lethally irradiated syngeneic mice given mobilized peripheral blood cells (Example 5); format: in vivo, mice (C57BL/6); conditions: 0.2 million mobilized PB cells per lethally irradiated recipient
Protocol: Peripheral blood (PB) mobilized by FLT3L and Plerixafor prolongs mouse survival in a lethally irradiated syngeneic mouse model and a fully mismatched acute GVHD model. To test whether the mobilized stem cells and other immune cells can improve transplantation, mobilized cells were administered to lethally irradiated (IR) syngeneic mice at the dose of 0.2 million PB cells for each recipient mouse.

[11] = system: Lin-c-kit+Sca-1+ HSCs and Lin-c-kit+Sca-1- progenitor cells; assay: Mobilization of HSCs and committed progenitors into peripheral blood, flow cytometry (Example 1); format: in vivo, mice (WT B6D2F1/J)
Description: Since HSCs are important for long-term reconstitution and progenitor cells are critical for short-term rapid reconstitution in transplantation, whether a combination of FLT3L and Plerixafor can mobilize both types of cells was investigated. In mice, Lin^−c-kit^+Sca-1^+ cells are enriched HSCs and Lin^−c-kit^+Sca-1^− cells are more committed progenitor cells. […] Furthermore, the mobilization effect of the FLT3L and Plerixafor combination was much stronger than the G-CSF and Plerixafor combination, the strongest mobilizer currently used clinically (5.9% vs. 2%, 10.3% vs. 1%, n=3, p<0.01, respectively). The flow results were validated by another method, stem cell colony formation assay.
In FIG. 1, WT B6D2F1/J mice were treated with FLT3L or G-CSF for 10 or 5 days, respectively, followed by a one-hour Plerixafor treatment. PBS served as a control. On the last day of the treatment, mice were sacrificed and peripheral blood cells were subjected to flow cytometry to determine percentages (among total WBC) of stem-cell enriched (Lin^−CD117^+Sca-1^+) (FIG. 1A) or more committed precursor cells ([…]) (FIG. 1B).

Row | Molecule | number of LSK cells in blood compared with PBS-treated mice [1] | proportion of CD8+ T cells in total white blood cells [2] | autologous transplant patients that respond poorly ([3]; G-CSF or G-CSF plus chemotherapy, varied depending on disease types and age) | normal donors that mobilize stem cells poorly ([3]; in response to G-CSF) | mice survived ([4]; 2.5×10^5 cells mobilized by G-CSF transplanted) | mice survived ([4]; syngeneically infused with 1×10^6 peripheral nucleated cells mobilized by G-CSF) | NK cells in peripheral blood and spleen ([5]; FLT3L alone for 14 days) | NK cell content compared with the combination of GCSF and Plerixafor ([5]; gated on total white blood cells) | mice surviving to 4 months post-transplantation [6] [%] | mice alive four months after transplantation [7] | survival rate at day 21 [7] [%] | survival rate two months (day 60) after transplantation [8] [%] | NK (CD3-NK1.1+) cell percentages [9] | protection from death [10] | effect on progenitor cells and HSCs ([11]; FLT3L administration for 5 days) | Lin-c-kit+Sca-1+ HSC, percentage among total WBC ([11]; peripheral blood, FLT3L administration of 7 days and 10 days, printed as 0.13% vs. 1.8%, n=3, p<0.01) [%] | Lin-c-kit+Sca-1- progenitor cells, percentage among total WBC ([11]; peripheral blood, FLT3L administration of 7 days and 10 days, printed as 0.47% vs. 1.8%, n=3, p<0.01) [%]
1 | c1cc(CN2CCCNCCNCCCNCC2)ccc1CN1CCCNCCNCCCNCC1 [Plerixafor, reference compound] | moderate increase | moderately gave rise to a proportional increase |  |  |  |  |  |  |  |  |  |  |  |  |  |  | 
2 | G-CSF: Granulocyte colony stimulating factor (Amgen), routinely used to mobilize PBSC (protein, UniProt P09919 31-207, looked up) Granulocyte …: TPLGPASSLPQSFLLKCLEQVRKIQGDGAALQEKLVSECATYKLCHPEELVLLGHSLGIPWAPLSSCPSQALQLAGCLSQLHSGLFLYQGLLQALEGISPELGPTLDTLQLDVADFATTIWQQMEELGMAPALQPTQGAMPAFASAFQRRAGGVLVASHLQSFLEVSYRVLRHLAQP |  |  | 10-30% | 5-10% | around 17% | about 90% |  |  |  |  |  |  |  |  |  |  | 
3 | FLT3L: recombinant human FLT3L (Celldex Therapeutics or Miltenyi Biotec), stem cell-specific growth factor (protein, UniProt P49771 27-235, looked up) Fms-related tyrosine kinase 3 …: TQDCSFQHSPISSDFAVKIRELSDYLLQDYPVTVASNLQDEELCGGLWRLVLAQRWMERLKTVAGSKMQGLLERVNTEIHFVTKCAFQPPPSCLRFVQTNISRLLQETSEQLVALKPWITRQNFSRCLELQCQPDSSTLPPPWSPRPLEATAPTAPQPPLLLLLLLPVGLLLLAAAWCLHWQRTRRRTPRPGEQVPPVPSPQDLLLVEH | significantly more LSK cells | dramatically decreased |  |  |  |  | dramatically increased | much higher NK cell content | 66 | approximately 70% | 100 | 60 | significantly increased | fully protect mice from death | increased only Lin-c-kit+Sca-1-progenitor cells but not HSCs | 1.8 | 1.8
